{"source": "patent US20240207380A1", "about": "“NOVEL PEPTIDE TARGETING DENDRITIC CELLS, AND COMPOSITION FOR TREATING CANCER COMPRISING SAME” (INDUSTRY FOUNDATION OF CHONNAM NATIONAL UNIVERSITY, priority 2021, published 2024)", "molecules": {"B1": {"name": "DEF (protein)", "chain": "MRFFCLGPLGFTKVDIDGPAGQAEPDRAHYNIVTFCCKCDSTLRLCVQSTHVDIRTLEDLLMGTLGIVCPICSQKPEFIDGPAGQAEPDRAHYNIVTFCCKCDSTLRLCVQSTHVDIRTLEDLLMGTLGIVCPICSQKPVDIDGPAGQAEPDRAHYNIVTFCCKCDSTLRLCVQSTHVDIRTLEDLLMGTLGIVCPICSQKPVDIDGPAGQAEPDRAHYNIVTFCCKCDSTLRLCVQSTHVDIRTLEDLLMGTLGIVCPICSQKPKLMAVNVNTNVAAMTAQRYLNNANSAQQTSMERLSSGFKINSAKDDAAGLQISNRLNVQSRGLDVAVRNANDGISIAQTAEGAMNETTNILQRMRDLSLQSANGSNSKSERVAIQEEVTALNDELNRIAETTSFGGNKLLNGTYGTKAMQIGADNGEAVMLSLKDMRSDNVMMGGVSYQAEEGKDKNWNVAAGDNDLTIALTDSFGNEQEIEINAKAGDDIEELATYINGQTDLVKASVGEGGKLQIFAGNNKVQGEIAFSGSLAGELGLGEGKNVTVDTIDVTTVQGAQESVAIVDAALKYVDSHRAELGAFQNRFNHAISNLDNINENVNASKSRIKDTDFAKETTQLTKTQILSQASSSILAQAKQAPNSALSLLGLEHHHHHH", "modifications": "DCpep6::4xE7deltaNLS::FlaB (DEF)"}}, "key": {"CD8^+ T cells": {"tested_on": "CD8^+ T cells", "assay": "Peptide-mediated CD8+ T cell activation (CFSE dilution, coculture with pulsed BMDCs)", "format": "cell-based, mice", "method": "CD8^+ splenocytes from TC-1 tumor-bearing mice were prepared using the MagniSort™ Mouse CD8 T Cell Enrichment kit (Invitrogen, 8804-6822) according to the manufacturer's instructions, and were labeled with 5 μM CFSE. EF- or DEF-pulsed BMDCs were cocultured with CFSE-stained CD8^+ cells at a ratio of 1:5 (BMDC:CD8^+ T cells) for 3 days in RPMI 1640 medium supplemented with 10% fetal bovine serum (HyClone, Logan, UT), 1% penicillin/streptomycin (Life Technologies, Grand Island, NY), and 50 μM 2-mercaptoethanol (Sigma, 516732). CD8^+ T cell proliferation was assessed by CFSE dilution using flow cytometry."}, "[1]": {"tested_on": "Bone marrow-derived dendritic cells (BMDCs)", "assay": "Cellular uptake of EF and DEF in BMDCs (flow cytometry)", "format": "cell-based, C57BL/6 mice", "details": "2 hours, anti-FlaB staining, FACS gated on CD11c+", "method": "Cells treated with PBS alone were used as a negative control. After incubation, the cells were washed twice with cold 1×PBS containing 3% FBS and then stained with anti-mouse CD11c^+ antibody (eBioscience, Clone: N418, 25-0114-82) for 1 hour at 4° C. and fixed with 4% paraformaldehyde (T&I, BPP-9004) for 10 minutes at room temperature. The cells were permeabilized using a permeabilization kit according to the manufacturer's instructions (Invitrogen, 00-8333-56) and stained with anti-FlaB antibodies, followed by FACS analysis by gating upon the CD11c^+ population. The results are depicted in FIG. 14."}, "[2]": {"tested_on": "Bone marrow-derived dendritic cells (BMDCs)", "assay": "Antigen-presenting cell activation (CD80 and CD86 on BMDC surface)", "format": "cell-based, C57BL/6 mice", "details": "0.5 μg/ml, 24 hours", "excerpt": "The cells were stained on ice with fluorophore-labeled antibodies before flow cytometry analysis."}, "TC-1 cells [3]": {"tested_on": "TC-1 cells", "assay": "Antitumor effect in NLRC4-knockout TC-1 tumor-bearing mice", "format": "in vivo", "details": "20 μg", "excerpt": "(§1) Wild-type (WT), TLR5-knockout (TLR5^−/−) and NLRC4-knockout (NLRC4^−/−) mouse groups were implanted with TC-1 cells in the right mid-flank. […] The results are depicted in FIG. 25."}, "[4]": {"tested_on": "CTL epitope-specific tetramer+ CD8+ cells", "assay": "Antigen-specific T cell immune response (E7 tetramer+ CD8+ cells in peripheral blood)", "format": "in vivo, mice", "method": "The peptides of the present disclosure as in Example 5 were administered to mice with or without tumors and peripheral blood was collected therefrom. After removal of RBC by RBC lysis buffer, the blood was stained with the tetramer antibody (PE-conjugated HPV16 H-2Db-[…], TB-5008-1, MBL) and CD8 antibody and analyzed by flow cytometry."}, "TLR5": {"target": "T1, TLR5 (Homo sapiens, UniProt O60602)", "T1 construct": "host or cells: HEK-Blue hTLR5 cells (HEK293-derived reporter line, own knowledge: stably transfected with the human TLR5 gene and an NF-kB-inducible SEAP reporter)", "T1 sequence (O60602 21-858)": "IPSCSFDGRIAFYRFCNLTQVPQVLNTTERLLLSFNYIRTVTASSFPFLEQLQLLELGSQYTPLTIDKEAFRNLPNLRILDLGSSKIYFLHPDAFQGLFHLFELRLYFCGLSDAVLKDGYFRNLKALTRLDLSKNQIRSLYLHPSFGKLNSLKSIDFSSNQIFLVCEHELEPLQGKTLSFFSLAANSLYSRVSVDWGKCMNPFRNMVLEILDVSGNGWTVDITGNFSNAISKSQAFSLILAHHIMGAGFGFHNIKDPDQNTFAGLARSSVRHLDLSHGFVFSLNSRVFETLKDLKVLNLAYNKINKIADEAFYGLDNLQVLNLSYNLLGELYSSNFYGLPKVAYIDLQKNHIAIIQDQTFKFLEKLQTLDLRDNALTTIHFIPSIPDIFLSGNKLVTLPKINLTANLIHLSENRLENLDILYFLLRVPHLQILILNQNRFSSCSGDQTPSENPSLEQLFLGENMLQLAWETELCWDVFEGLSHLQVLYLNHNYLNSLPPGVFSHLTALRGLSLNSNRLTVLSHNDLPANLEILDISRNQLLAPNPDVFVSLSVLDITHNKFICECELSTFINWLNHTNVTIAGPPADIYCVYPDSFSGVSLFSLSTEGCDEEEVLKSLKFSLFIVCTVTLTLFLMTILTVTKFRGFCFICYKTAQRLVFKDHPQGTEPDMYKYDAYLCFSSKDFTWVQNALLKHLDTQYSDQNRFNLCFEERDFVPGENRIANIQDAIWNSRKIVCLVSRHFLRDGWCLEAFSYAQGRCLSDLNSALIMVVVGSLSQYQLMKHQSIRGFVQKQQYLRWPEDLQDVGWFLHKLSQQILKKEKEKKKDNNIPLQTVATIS", "format": "cell-based", "details": "HEK-Blue hTLR5 cells", "method": "Also, the EC50 was calculated using triplicate OD 620 nm values for each protein concentration over a wide range of protein concentrations (0.0375 nM-19.29 nM at the AAT Bioquest website)."}, "BMDCs or RAW264.7 cells": {"tested_on": "BMDCs or RAW264.7 cells", "assay": "Intracellular distribution of EF and DEF by confocal microscopy", "format": "cell-based", "details": "20 μg/ml, 2 hours", "method": "After incubation, the cells were harvested, washed, fixed with 100% methanol for 15 minutes at room temperature, and stained with anti-mouse CD11c^+ APC-conjugated antibody and DAPI, a nuclear stain, for 1 hour at room temperature. After two washes with cold 1×PBS, the intercellular distributions of the peptides within the dendritic cells (CD11c^+) were determined by confocal microscopy (LSM800)."}, "[5]": {"assay": "In vivo distribution of FNR675-labeled peptides in draining inguinal lymph nodes", "design": "species or system  mice", "details": "subcutaneous", "method": "Next, the conjugated proteins were quantitatively determined from the calibration curve of the FNR675-NHS ester using a UV-Vis spectrophotometer (UV-2700, Shimadzu, Japan).\nThe fluorescence signals in the draining lymph nodes were determined and are depicted in FIG. 16. In addition, six hours after injection, the draining inguinal LN (iLN) cells were prepared, and then in vivo DC-targeting was determined by FACS analysis gating upon CD11c^+ cell population, and the results are depicted in FIG. 17."}, "TC-1 cells [6]": {"tested_on": "TC-1 cells", "assay": "Antitumor efficacy of peptides in TC-1 tumor-bearing mice (survival, tumor volume)", "format": "in vivo, C57BL/6 mice", "method": "Female SPF C57BL/6 mice 7 to 8 weeks old were purchased from ORIENT (Seongnam-si, Gyeonggi-do, Korea). TC-1 cells were cultured in RPMI 1640 medium supplemented with 10% heat-inactivated FIBS, 100 units/ml penicillin, and 100 μg/ml streptomycin at 37° C. under 5% CO2. Tumors were established in mice by subcutaneous injection of 5×10^4 TC-1 cells in 100 μl of PBS into the right mid-flank of each mouse. […] Tumor growth was monitored every three days. The tumor volume was calculated with formula V=(tumor length)×(tumor width)×(tumor height)/2.\nThe tumor-bearing mice were administered the all-in-one vaccine of the present disclosure as in Example 5 and measured for survival rate and tumor volume in the same manner. For a positive control, a group of mice was immunized with HPV16 E7 CTL peptide (amino acid 49-57: […]), known as a cytotoxic T lymphocyte (CTL)-inducing peptide."}, "TC-1 cells [7]": {"tested_on": "TC-1 cells", "assay": "Antitumor effect in TLR5-knockout TC-1 tumor-bearing mice", "format": "in vivo", "excerpt": "as §1"}, "[8]": {"tested_on": "IFN-γ-producing cells of spleen (SPL) or tumor-draining lymph nodes (TDLNs)", "assay": "CTL peptide-specific immune response (IFN-γ ELISpot)", "format": "in vivo, mice", "method": "Single-cell suspensions from the spleen (SPL) or tumor-draining lymph nodes (TDLNs) were prepared by administering the peptides of the present disclosure to mice with or without tumors in the same manner as in Example 5. A total of 1×10^6 SPL or 2.5×10^5 TDLNs cells were seeded into 96-well Filtration ELISpot plates (Merck, HAMAS4510) and stimulated with 1 μg/ml E7 CTL peptide (amino acids 49-57: […]). Cells stimulated with 10 ng/ml concanavalin A were used as a positive control. After two days of culture of SPL cells or five days of culture of TDLN cells, IFN-γ-producing cells were detected by using the mouse IFN-γ ELISpot Set (BD Bioscience, 551083) according to the manufacturer's instructions. IFN-γ-producing cells were analyzed using a CTL-ImmunoSpot Analyzer and ImmunoSpot Professional Software version 5.0 (Cellular Technology, Shaker Heights, OH, USA)."}, "[9]": {"details": "versus E7 Pep+F positive control"}}, "note": "Entries after “also recorded” stand apart in the source; their conditions may differ."}
{"molecule": "B1", "values": [{"measurement": "division index of CD8+ T cells (FIG. 26)", "setting": "CD8^+ T cells; NLRC4-knockout (NLRC4^−/−) mice, 1 μg/mL", "result": "rather decreased"}, {"measurement": "division index of CD8+ T cells (FIG. 26)", "setting": "CD8^+ T cells; wild-type (WT) mice BMDCs pulsed with 1 μg/mL for 24 hours, coculture 1:5 for 3 days", "result": "significantly enhanced"}, {"measurement": "cellular uptake in bone marrow-derived dendritic cells (FIG. 14)", "setting": "[1]", "result": "concentration-dependent cellular uptake"}, {"measurement": "expression of CD80 and CD86 on BMDC surface (FIG. 20)", "setting": "[2]", "result": "significantly enhanced expression"}, {"measurement": "effects on tumor volume and survival (FIG. 25)", "setting": "TC-1 cells [3]", "result": "abolished"}, {"measurement": "tetramer-positive cells in peripheral blood (FIG. 22)", "setting": "[4]; mice without tumors", "result": "remarkably high levels"}, {"measurement": "CTL epitope-specific tetramer-positive CD8+ cells in peripheral blood (FIG. 21)", "setting": "[4]; tumor-bearing mice, compared with PBS, E and EF groups", "result": "significantly higher levels"}, {"measurement": "NF-κB activity levels (FIG. 13)", "setting": "TLR5", "result": "increased the activity in dose-dependent manners"}, {"measurement": "intracellular location (FIG. 15)", "setting": "BMDCs or RAW264.7 cells", "result": "located in the cytoplasm of CD11c^+ cells"}, {"measurement": "time to removal from the draining lymph nodes post administration", "setting": "[5]", "result": "≤ 24", "unit": "h"}, {"measurement": "tumor volume (FIG. 19)", "setting": "TC-1 cells [6]; among all administered groups", "result": "smallest"}, {"measurement": "survival (FIG. 18)", "setting": "TC-1 cells [6]; compared with E7ΔNLS (E)-administered group", "result": "significantly longer survival; also recorded: longest survival"}, {"measurement": "survival compared with HPV16 E7 CTL peptide+FlaB (E7 Pep+F) group (FIG. 18)", "setting": "TC-1 cells [6]; [9]", "result": "notably longer survival"}, {"measurement": "tumor volume compared with HPV16 E7 CTL peptide+FlaB (E7 Pep+F) group (FIG. 19)", "setting": "TC-1 cells [6]; [9]", "result": "remarkably much smaller"}, {"measurement": "survival and tumor volume effect in TLR5^−/− mice relative to wild-type mice (FIG. 25)", "setting": "TC-1 cells [7]; 20 μg, TLR5^−/− versus wild-type", "result": "significantly lower levels"}, {"measurement": "survival (FIG. 25)", "setting": "TC-1 cells [7]; TLR5^−/− mice, 20 μg subcutaneous peritumoral three times, compared to PBS group", "result": "significantly longer survival"}, {"measurement": "tumor volume (FIG. 25)", "setting": "TC-1 cells [7]; TLR5^−/− mice, 20 μg, compared to PBS group", "result": "decreased"}, {"measurement": "IFN-γ production (FIG. 24)", "setting": "[8]; mice without tumors", "result": "significantly higher level"}, {"measurement": "IFN-γ production level in SPL and TDLNs (FIG. 23)", "setting": "[8]; tumor-bearing mice, compared to PBS, E and EF", "result": "significantly enhanced"}]}
